Measurements from patent US11702666B2, “Cell-based assay for determining activity in the retinoblastoma pathway” (Medical Diagnostic Laboratories, LLC, priority 2017, dated 2023).

What follows are molecules tested on Rb/E2F1-Dp-1 complex (assay: CDK4 mutant activity / drug resistance in NanoBiT assay, stable cell line #11). Conditions: CDK4 mutants, compared to the WT (being 100%).
Assay type: cell-based, human
Description: A linear expression cassette of mutated CDK4 or CDK6 was generated by PCR mediated overlapping extension method. A pair of forward and reverse primers containing the targeted mutations was designed. The mutated codon was located in the middle of a primer flanked by 18-21 nucleotides on each side. Two PCRs (named as PCR #1 and PCR #2 in FIG. 1) were performed using UF-CMV forward and mutated reverse primers, or mutated forward and BGH-UR primers. The PCR products were cleaned up by ExoSAP-IT® (Affymetrix) to remove unconsumed dNTPs and primers. The treated PCR products were mixed together followed by dilution with water. A second round of PCR was performed using the diluted PCR mixture, and the UF and UR primers (FIG. 1). The amplified products were gel-purified. The DNA concentration was quantitated by the optical density at 260 nm using Nanodrop. The targeted mutations were incorporated in the CDK4 or CDK6 genes during the PCR mediated overlapping extension method. The introduced mutations were confirmed by the DNA sequencing.
To examine the ability of the assay to detect variants in CDK4 or CDK6 that affect function, kinase dead mutants and COSMIC (Catalogue Of Somatic Mutations in cancer) unknown mutants were created. For comparison, hyperactive CDK4 or CDK6 mutants known to be hyperactive due to less binding to natural inhibitor p16 were also created. The mutations in CDK4 or CDK6 were created by site-directed mutagenesis. WT or mutated CDK4 or CDK6 along with the CyclinD1 and SB-Rb were co-transfected, under similar conditions as previously indicated (see FIG. 9).
To examine the specificity of the assay, particular CDK4 kinase dead mutants were created. Modifications to D158 were made by changing aspartate to nonpolar alanine (D158A) or positively charged arginine (D158R). […] The mutations in CDK4 were created by site-directed mutagenesis. WT or mutated CDK4 along with the CyclinD1 and SB-Rb was co-transfected into the #11 cell line, under the same conditions as previously indicated. […] Kinase dead mutants have the high signal due to inability to phosphorylate Rb.
Computer modeling was used to reveal the drug-binding pocket and predict drug-resistant mutants. The mutations in CDK4 and CDK6 were created by site-directed mutagenesis. WT or mutated CDK4 or CDK6 along with the CyclinD1 and SB-Rb was co-transfected into #11 cell line, under the same conditions as previously indicated. […] Dose response curves are presented on FIG. 13A and FIG. 13B. Activity of other mutants was very similar to the WT or KD.
CDK4 and CDK6 mutants with known function and unknown function taken from the COSMIC database were analyzed in the present assay and are summarized in Table 7A and Table 7B. The mutants were classified according to their activity. Table 7A and Table 7B also show the number of counts per mutant in the COSMIC database, type of cancer, and luciferase activity compared to the WT (being 100%).

Molecule | Luc. activity (/wt)
CDK4 K22M: CDK4 mutant from COSMIC database (protein, UniProt P11802 2-303, looked up, variant K22M) Cyclin-dependent kinase 4: ATSRYEPVAEIGVGAYGTVYMARDPHSGHFVALKSVRVPNGGGGGGGLPISTVREVALLRRLEAFEHPNVVRLMDVCATSRTDREIKVTLVFEHVDQDLRTYLDKAPPPGLPAETIKDLMRQFLRGLDFLHANCIVHRDLKPENILVTSGGTVKLADFGLARIYSYQMALTPVVVTLWYRAPEVLLQSTYATPVDMWSVGCIFAEMFRRKPLFCGNSEADQLGKIFDLIGLPPEDDWPRDVSLPRGAFPPRGPRPVQSVVPEMEESGAQLLLEMLTFNPHKRISAFRALQHSYLHKDEGNPE | 141%
CDK4 R24S: CDK4 mutant from COSMIC database (protein, UniProt P11802 2-303, looked up, variant R24S) Cyclin-dependent kinase 4: ATSRYEPVAEIGVGAYGTVYKASDPHSGHFVALKSVRVPNGGGGGGGLPISTVREVALLRRLEAFEHPNVVRLMDVCATSRTDREIKVTLVFEHVDQDLRTYLDKAPPPGLPAETIKDLMRQFLRGLDFLHANCIVHRDLKPENILVTSGGTVKLADFGLARIYSYQMALTPVVVTLWYRAPEVLLQSTYATPVDMWSVGCIFAEMFRRKPLFCGNSEADQLGKIFDLIGLPPEDDWPRDVSLPRGAFPPRGPRPVQSVVPEMEESGAQLLLEMLTFNPHKRISAFRALQHSYLHKDEGNPE | 117%
CDK4 K35M: CDK4 mutant, literature kinase dead (protein, UniProt P11802 2-303, looked up, variant K35M) Cyclin-dependent kinase 4: ATSRYEPVAEIGVGAYGTVYKARDPHSGHFVALMSVRVPNGGGGGGGLPISTVREVALLRRLEAFEHPNVVRLMDVCATSRTDREIKVTLVFEHVDQDLRTYLDKAPPPGLPAETIKDLMRQFLRGLDFLHANCIVHRDLKPENILVTSGGTVKLADFGLARIYSYQMALTPVVVTLWYRAPEVLLQSTYATPVDMWSVGCIFAEMFRRKPLFCGNSEADQLGKIFDLIGLPPEDDWPRDVSLPRGAFPPRGPRPVQSVVPEMEESGAQLLLEMLTFNPHKRISAFRALQHSYLHKDEGNPE | 350%
CDK4 K35R: CDK4 mutant from COSMIC database (protein, UniProt P11802 2-303, looked up, variant K35R) Cyclin-dependent kinase 4: ATSRYEPVAEIGVGAYGTVYKARDPHSGHFVALRSVRVPNGGGGGGGLPISTVREVALLRRLEAFEHPNVVRLMDVCATSRTDREIKVTLVFEHVDQDLRTYLDKAPPPGLPAETIKDLMRQFLRGLDFLHANCIVHRDLKPENILVTSGGTVKLADFGLARIYSYQMALTPVVVTLWYRAPEVLLQSTYATPVDMWSVGCIFAEMFRRKPLFCGNSEADQLGKIFDLIGLPPEDDWPRDVSLPRGAFPPRGPRPVQSVVPEMEESGAQLLLEMLTFNPHKRISAFRALQHSYLHKDEGNPE | 310%
CDK4 V137I: CDK4 mutant from COSMIC database (protein, UniProt P11802 2-303, looked up, variant V137I) Cyclin-dependent kinase 4: ATSRYEPVAEIGVGAYGTVYKARDPHSGHFVALKSVRVPNGGGGGGGLPISTVREVALLRRLEAFEHPNVVRLMDVCATSRTDREIKVTLVFEHVDQDLRTYLDKAPPPGLPAETIKDLMRQFLRGLDFLHANCIIHRDLKPENILVTSGGTVKLADFGLARIYSYQMALTPVVVTLWYRAPEVLLQSTYATPVDMWSVGCIFAEMFRRKPLFCGNSEADQLGKIFDLIGLPPEDDWPRDVSLPRGAFPPRGPRPVQSVVPEMEESGAQLLLEMLTFNPHKRISAFRALQHSYLHKDEGNPE | 120%
CDK4 K155Q: CDK4 mutant from COSMIC database (protein, UniProt P11802 2-303, looked up, variant K155Q) Cyclin-dependent kinase 4: ATSRYEPVAEIGVGAYGTVYKARDPHSGHFVALKSVRVPNGGGGGGGLPISTVREVALLRRLEAFEHPNVVRLMDVCATSRTDREIKVTLVFEHVDQDLRTYLDKAPPPGLPAETIKDLMRQFLRGLDFLHANCIVHRDLKPENILVTSGGTVQLADFGLARIYSYQMALTPVVVTLWYRAPEVLLQSTYATPVDMWSVGCIFAEMFRRKPLFCGNSEADQLGKIFDLIGLPPEDDWPRDVSLPRGAFPPRGPRPVQSVVPEMEESGAQLLLEMLTFNPHKRISAFRALQHSYLHKDEGNPE | 130%
CDK4 D158Y: CDK4 mutant from COSMIC database (protein, UniProt P11802 2-303, looked up, variant D158Y) Cyclin-dependent kinase 4: ATSRYEPVAEIGVGAYGTVYKARDPHSGHFVALKSVRVPNGGGGGGGLPISTVREVALLRRLEAFEHPNVVRLMDVCATSRTDREIKVTLVFEHVDQDLRTYLDKAPPPGLPAETIKDLMRQFLRGLDFLHANCIVHRDLKPENILVTSGGTVKLAYFGLARIYSYQMALTPVVVTLWYRAPEVLLQSTYATPVDMWSVGCIFAEMFRRKPLFCGNSEADQLGKIFDLIGLPPEDDWPRDVSLPRGAFPPRGPRPVQSVVPEMEESGAQLLLEMLTFNPHKRISAFRALQHSYLHKDEGNPE | 230%
CDK4 D158N: CDK4 mutant, literature kinase dead (protein, UniProt P11802 2-303, looked up, variant D158N) Cyclin-dependent kinase 4: ATSRYEPVAEIGVGAYGTVYKARDPHSGHFVALKSVRVPNGGGGGGGLPISTVREVALLRRLEAFEHPNVVRLMDVCATSRTDREIKVTLVFEHVDQDLRTYLDKAPPPGLPAETIKDLMRQFLRGLDFLHANCIVHRDLKPENILVTSGGTVKLANFGLARIYSYQMALTPVVVTLWYRAPEVLLQSTYATPVDMWSVGCIFAEMFRRKPLFCGNSEADQLGKIFDLIGLPPEDDWPRDVSLPRGAFPPRGPRPVQSVVPEMEESGAQLLLEMLTFNPHKRISAFRALQHSYLHKDEGNPE | 300%
CDK4 L161L: CDK4 silent variant (C-T) from COSMIC database (protein, UniProt P11802 2-303, looked up, silent L161L nucleotide variant, CDK4 silent variant (C-T) from COSMIC database) Cyclin-dependent kinase 4: ATSRYEPVAEIGVGAYGTVYKARDPHSGHFVALKSVRVPNGGGGGGGLPISTVREVALLRRLEAFEHPNVVRLMDVCATSRTDREIKVTLVFEHVDQDLRTYLDKAPPPGLPAETIKDLMRQFLRGLDFLHANCIVHRDLKPENILVTSGGTVKLADFGLARIYSYQMALTPVVVTLWYRAPEVLLQSTYATPVDMWSVGCIFAEMFRRKPLFCGNSEADQLGKIFDLIGLPPEDDWPRDVSLPRGAFPPRGPRPVQSVVPEMEESGAQLLLEMLTFNPHKRISAFRALQHSYLHKDEGNPE | 59%
CDK4 R210Q: CDK4 mutant from COSMIC database (protein, UniProt P11802 2-303, looked up, variant R210Q) Cyclin-dependent kinase 4: ATSRYEPVAEIGVGAYGTVYKARDPHSGHFVALKSVRVPNGGGGGGGLPISTVREVALLRRLEAFEHPNVVRLMDVCATSRTDREIKVTLVFEHVDQDLRTYLDKAPPPGLPAETIKDLMRQFLRGLDFLHANCIVHRDLKPENILVTSGGTVKLADFGLARIYSYQMALTPVVVTLWYRAPEVLLQSTYATPVDMWSVGCIFAEMFRQKPLFCGNSEADQLGKIFDLIGLPPEDDWPRDVSLPRGAFPPRGPRPVQSVVPEMEESGAQLLLEMLTFNPHKRISAFRALQHSYLHKDEGNPE | 74.5%
CDK4 S285C: CDK4 mutant from COSMIC database (protein, UniProt P11802 2-303, looked up, variant S285C) Cyclin-dependent kinase 4: ATSRYEPVAEIGVGAYGTVYKARDPHSGHFVALKSVRVPNGGGGGGGLPISTVREVALLRRLEAFEHPNVVRLMDVCATSRTDREIKVTLVFEHVDQDLRTYLDKAPPPGLPAETIKDLMRQFLRGLDFLHANCIVHRDLKPENILVTSGGTVKLADFGLARIYSYQMALTPVVVTLWYRAPEVLLQSTYATPVDMWSVGCIFAEMFRRKPLFCGNSEADQLGKIFDLIGLPPEDDWPRDVSLPRGAFPPRGPRPVQSVVPEMEESGAQLLLEMLTFNPHKRICAFRALQHSYLHKDEGNPE | 125%
